From paper PMC6391921

Assays:
Assay in all cases: BLI
[1] = target: full-length H3 HA trimer (influenza A virus (H3))
[2] = target: H3ssF_H, H3 stabilized HA stem ferritin nanoparticle, design H (influenza A virus A/Finland/486/2004 (H3N2) | not stated) (UniProt Q9ZLI1)
[3] = target: H3ssF_C, H3 stabilized HA stem ferritin nanoparticle, design C (influenza A virus A/Finland/486/2004 (H3N2) | not stated) (UniProt Q9ZLI1)

For CT149 Fab, the Kd [1] was 42.2 nM, the koff [1] was 0.0032 s⁻¹ and the kon [1] was 75000 M⁻¹ s⁻¹. The Kd [2] was 22.2 nM, the koff [2] was 0.018 s⁻¹ and the kon [2] was 820000 M⁻¹ s⁻¹. For the same substance, the Kd [3] was 21.3 nM, the koff [3] was 0.017 s⁻¹ and the kon [3] was 810000 M⁻¹ s⁻¹.
